Results taken from article PMC1635325 (Nucleic Acids Research, 2006).

B1: recombinant MnmE (rMnmE, 53 kDa) (natural protein, E. coli, UniProt P25522 1-454, looked up)
chain: MSDNDTIVAQATPPGRGGVGILRISGFKAREVAETVLGKLPKPRYADYLPFKDADGSVLDQGIALWFPGPNSFTGEDVLELQGHGGPVILDLLLKRILTIPGLRIARPGEFSERAFLNDKLDLAQAEAIADLIDASSEQAARSALNSLQGAFSARVNHLVEALTHLRIYVEAAIDFPDEEIDFLSDGKIEAQLNDVIADLDAVRAEARQGSLLREGMKVVIAGRPNAGKSSLLNALAGREAAIVTDIAGTTRDVLREHIHIDGMPLHIIDTAGLREASDEVERIGIERAWQEIEQADRVLFMVDGTTTDAVDPAEIWPEFIARLPAKLPITVVRNKADITGETLGMSEVNGHALIRLSARTGEGVDVLRNHLKQSMGFDTNMEGGFLARRRHLQALEQAAEHLQQGKAQLLGAWAGELLAEELRLAQQNLSEITGEFTSDDLLGRIFSSFCIGK
B2: FLAG-GidA (natural protein, E. coli, UniProt P0A6U3 1-629, looked up)
chain: MFYPDPFDVIIIGGGHAGTEAAMAAARMGQQTLLLTHNIDTLGQMSCNPAIGGIGKGHLVKEVDALGGLMAKAIDQAGIQFRILNASKGPAVRATRAQADRVLYRQAVRTALENQPNLMIFQQAVEDLIVENDRVVGAVTQMGLKFRAKAVVLTVGTFLDGKIHIGLDNYSGGRAGDPPSIPLSRRLRELPLRVGRLKTGTPPRIDARTIDFSVLAQQHGDNPMPVFSFMGNASQHPQQVPCYITHTNEKTHDVIRSNLDRSPMYAGVIEGVGPRYCPSIEDKVMRFADRNQHQIFLEPEGLTSNEIYPNGISTSLPFDVQMQIVRSMQGMENAKIVRPGYAIEYDFFDPRDLKPTLESKFIQGLFFAGQINGTTGYEEAAAQGLLAGLNAARLSADKEGWAPARSQAYLGVLVDDLCTLGTKEPYRMFTSRAEYRLMLREDNADLRLTEIGRELGLVDDERWARFNEKLENIERERQRLKSTWVTPSAEAAAEVNAHLTAPLSREASGEDLLRRPEMTYEKLTTLTPFAPALTDEQAAEQVEIQVKYEGYIARQQDEIEKQLRNENTLLPATLDYRQVSGLSNEVIAKLNDHKPASIGQASRISGVTPAAISILLVWLKKQGMLRRSA

What was measured:
[1] = target: B2; experiment: native gel or EMSA
[2] = target: the molecule itself; experiment: SEC

| stoichiometry N [1] | Binder | stoichiometry N [2] |
| --- | --- | --- |
| 1 MnmE per GidA (α2β2, 2:2) | B1 |  |
|  | B2 | 2 |
